Results from US20220389118A1 (Chugai, published 2022).
Substitutions are numbered along the chain they refer to.

T1: human FcγRIIa type R extracellular domain with C-terminal His tag (human, UniProt P12318 34-217)
T1 construct: extracellular domain; also called FcγRIIaR; FcγRIIa(R)
T1 sequence (looked up): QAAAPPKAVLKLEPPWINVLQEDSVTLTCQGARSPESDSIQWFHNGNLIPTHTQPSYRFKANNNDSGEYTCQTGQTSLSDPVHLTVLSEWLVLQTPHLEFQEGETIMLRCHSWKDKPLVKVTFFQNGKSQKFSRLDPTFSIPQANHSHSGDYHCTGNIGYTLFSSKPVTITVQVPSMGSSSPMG

T2: human FcγRIIb extracellular domain with C-terminal His tag (human, UniProt P31994 43-217)
T2 construct: extracellular domain
T2 sequence (looked up): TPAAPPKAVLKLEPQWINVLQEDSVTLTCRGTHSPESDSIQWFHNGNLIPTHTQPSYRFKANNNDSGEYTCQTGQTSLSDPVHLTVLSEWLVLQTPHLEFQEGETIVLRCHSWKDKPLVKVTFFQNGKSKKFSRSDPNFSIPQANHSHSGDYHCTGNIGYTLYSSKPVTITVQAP

T3: human FcγRIIa type R (allotype R131) extracellular domain with C-terminal His tag (human, UniProt P12318 34-217)
T3 construct: extracellular domain; also called FcγRIIaR; FcγRIIa R type; not shown: His tag at the C terminus
T3 sequence (looked up): T1 sequence (looked up)

T4: human FcγRIIa type H extracellular domain with C-terminal His tag (human, UniProt P12318 34-217)
T4 construct: extracellular domain; also called FcγRIIaH; FcγRIIa(H)
T4 sequence (looked up): T1 sequence (looked up) with R134H

B1: IL6R-BP488/IL6R-L (antibody, human IgG1, kappa)
heavy: QVQLQESGPGLVKPSETLSLTCAVSGHSISHDHAWSWVRQPPGEGLEWIGFISYSGITNYNPSLQGRVTISRDNSKNTLYLQMNSLRAEDTAVYYCARSLARTTAMDYWGEGTLVTVSSASTKGPSVFPLAPSSKSTSGGTAALGCLVKDYFPEPVTVSWNSGALTSGVHTFPAVLQSSGLYSLSSVVTVPSSSLGTQTYICNVNHKPSNTKVDKKVEPKSCDKTHTCPPCPAPDLLGDDSVFLFPPKPKDTLMISRTPEVTCVVIDVAEEDGEVKFNWYVDGVEVHNAKTKPREEQDNSTYRVVSVLTVLHQDWLNGKEYKCKVSNKALPRPIEKTISKAKGQPREPQVYTLPPSRDELTKNQVSLTCLVKGFYPSDIAVEWESNGQPENNYKTTPPVLDSDGSFFLYSKLTVDKSRWQQGNVFSCSVMHEALHNHYTQESLSLSP
light: not shown
notes: copies: 2 + 2
B2: IL6R-BP536/IL6R-L (antibody, human IgG1, kappa)
heavy: B1 heavy with A269S, A329G, P398M
light: not shown
notes: copies: 2 + 2
B3: IL6R-BP540/IL6R-L (antibody, human IgG1, kappa)
heavy: B1 heavy with D235E, A269S, E274P
light: not shown
notes: copies: 2 + 2
B4: IL6R-BP538/IL6R-L (antibody, human IgG1, kappa)
heavy: B1 heavy with D235E, A269S, D298Y
light: not shown
notes: copies: 2 + 2
B5: IL6R-BP533/IL6R-L (antibody, human IgG1, kappa)
heavy: B1 heavy with A269G, P398L
light: not shown
notes: copies: 2 + 2
B6: IL6R-BP551/IL6R-L (antibody, human IgG1, kappa)
heavy: B1 heavy with D235E, A269S, E274D
light: not shown
notes: copies: 2 + 2
B7: IL6R-BP550/IL6R-L (antibody, human IgG1, kappa)
heavy: B1 heavy with D235E, A269G, E274D
light: not shown
notes: copies: 2 + 2
B8: IL6R-BP511/IL6R-L (antibody, human IgG1, kappa)
heavy: B1 heavy with D235E, E274P
light: not shown
notes: copies: 2 + 2
B9: IL6R-BP503/IL6R-L (antibody, human IgG1, kappa)
heavy: B1 heavy with A329G, P398M
light: not shown
notes: copies: 2 + 2
B10: IL6R-BP556/IL6R-L (antibody, human IgG1, kappa)
heavy: B1 heavy with D235E, A269G
light: not shown
notes: copies: 2 + 2
B11: IL6R-BP539/IL6R-L (antibody, human IgG1, kappa)
heavy: B1 heavy with D235E, A269G, E274P
light: not shown
notes: copies: 2 + 2
B12: IL6R-BP502/IL6R-L (antibody, human IgG1, kappa)
heavy: B1 heavy with A329G
light: not shown
notes: copies: 2 + 2
B13: IL6R-BP499/IL6R-L (antibody, human IgG1, kappa)
heavy: B1 heavy with P398L
light: not shown
notes: copies: 2 + 2
B14: IL6R-BP498/IL6R-L (antibody, human IgG1, kappa)
heavy: B1 heavy with D298Y, P398L
light: not shown
notes: copies: 2 + 2
B15: IL6R-BP186/IL6R-L (antibody, human IgG1, kappa)
heavy: B1 heavy with L236Y, I266V, A269S, E270H, K328A, R332K
light: not shown
notes: copies: 2 + 2
B16: IL6R-BP188/IL6R-L (antibody, human IgG1, kappa)
heavy: B1 heavy with I266V, A269S, E270D, D298Y, R332K
light: not shown
notes: copies: 2 + 2
B17: IL6R-BP210/IL6R-L (antibody, human IgG1, kappa)
heavy: B1 heavy with D235E, I266V, A269S, E270D, D298Y
light: not shown
notes: copies: 2 + 2
B18: IL6R-BP204/IL6R-L (antibody, human IgG1, kappa)
heavy: B1 heavy with D239G, I266V, A269S, E270H, D298Y, K328A
light: not shown
notes: copies: 2 + 2
B19: IL6R-BP190/IL6R-L (antibody, human IgG1, kappa)
heavy: B1 heavy with D235E, I266V, A269S, E270D, D298Y, R332K
light: not shown
notes: copies: 2 + 2
B20: IL6R-BP213/IL6R-L (antibody, human IgG1, kappa)
heavy: B1 heavy with D239G, I266V, A269S, E270D, D298Y
light: not shown
notes: copies: 2 + 2
B21: IL6R-BP199/IL6R-L (antibody, human IgG1, kappa)
heavy: B1 heavy with D239G, I266V, A269S, E270H, G273P, D298Y, K328D
light: not shown
notes: copies: 2 + 2
B22: IL6R-BP205/IL6R-L (antibody, human IgG1, kappa)
heavy: B1 heavy with D239G, I266V, A269S, E270H
light: not shown
notes: copies: 2 + 2
B23: IL6R-BP207/IL6R-L (antibody, human IgG1, kappa)
heavy: B1 heavy with D239G, I266V, A269S, E270H, G273P, D298Y
light: not shown
notes: copies: 2 + 2

Molecular target: T1, human FcγRIIa type R extracellular …
Assay: SPR (Biacore), parent IL6R-B3/IL6R-L

Row | KD(IIaR) parent/KD(IIaR) altered polypeptide | Binder
1 | 14.8 | B1
2 | 13.9 | B2
3 | 5.2 | B3
4 | 5.4 | B4
5 | 9.2 | B5
6 | 4.5 | B6
7 | 3.3 | B7
8 | 6.3 | B8
9 | 19.4 | B9
10 | 3.7 | B10
11 | 3.4 | B11
12 | 10.1 | B12
13 | 22.3 | B13
14 | 21.7 | B14

Molecular target: T2, human FcγRIIb extracellular domain with …
Assay: SPR (Biacore), parent IL6R-B3/IL6R-L

Row | KD(IIb) parent/KD(IIb) altered polypeptide | Binder
15 | 1680 | B1
16 | 1040 | B2
17 | 541 | B3
18 | 587 | B4
19 | 756 | B5
20 | 482 | B6
21 | 406 | B7
22 | 891 | B8
23 | 1810 | B9
24 | 370 | B10
25 | 369 | B11
26 | 840 | B12
27 | 2120 | B13
28 | 1880 | B14

Molecular target: T2, human FcγRIIb extracellular domain with …
Assay: SPR (Biacore), ratio of KDs

Row | KD(IIaH)/KD(IIb) | KD(IIaR)/KD(IIb) | Binder
29 | 865 | 40.1 | B1
30 | 438 | 26.6 | B2
31 | 803 | 36.6 | B3
32 | 568 | 38.6 | B4
33 | 634 | 29.3 | B5
34 | 436 | 38.1 | B6
35 | 655 | 44.2 | B7
36 | 1240 | 50.6 | B8
37 | 503 | 33.2 | B9
38 | 692 | 35.4 | B10
39 | 667 | 39 | B11
40 | 352 | 29.5 | B12
41 | 685 | 33.8 | B13
42 | 564 | 30.8 | B14

Molecular target: T3, human FcγRIIa type R (allotype R131) …
Assay: SPR (Biacore), antibody captured, FcγR analyte

Row | Kd | Binder
43 | 960 nM | B15
44 | 1000 nM | B16
45 | 1000 nM | B17
46 | 4500 nM | B18

Molecular target: T5, human FcγRIIIa type V (allotype V158) extracellular domain with C-terminal His tag (human, UniProt P08637 17-208)
T5 construct: extracellular domain; also called FcγRIIIaV; FcγRIIIa V type; not shown: His tag at the C terminus
T5 sequence (P08637 17-208 F176V): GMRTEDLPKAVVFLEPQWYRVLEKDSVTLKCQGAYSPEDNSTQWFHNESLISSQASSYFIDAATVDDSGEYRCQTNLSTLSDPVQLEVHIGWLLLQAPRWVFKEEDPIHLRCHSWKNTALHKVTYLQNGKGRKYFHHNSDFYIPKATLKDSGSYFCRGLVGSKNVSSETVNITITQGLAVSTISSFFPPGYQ
Assay: SPR (Biacore), antibody captured, FcγR analyte

Row | Kd | Binder
47 | 45000 nM | B19
48 | 63000 nM | B20
49 | 61000 nM | B21
50 | 68000 nM | B22
51 | 65000 nM | B23

Molecular target: T1, human FcγRIIa type R extracellular …
Assay: SPR (Biacore)

Row | Kd | Binder
52 | 74 nM | B1
53 | 79 nM | B2
54 | 210 nM | B3
55 | 200 nM | B4
56 | 120 nM | B5
57 | 250 nM | B6
58 | 340 nM | B7
59 | 180 nM | B8
60 | 57 nM | B9
61 | 300 nM | B10
62 | 330 nM | B11
63 | 110 nM | B12
64 | 49 nM | B13
65 | 51 nM | B14

Molecular target: T2, human FcγRIIb extracellular domain with …
Assay: SPR (Biacore)

Row | Kd | Binder
66 | 1.9 nM | B1
67 | 3 nM | B2
68 | 5.7 nM | B3
69 | 5.3 nM | B4
70 | 4.1 nM | B5
71 | 6.4 nM | B6
72 | 7.6 nM | B7
73 | 3.5 nM | B8
74 | 1.7 nM | B9
75 | 8.4 nM | B10
76 | 8.4 nM | B11
77 | 3.7 nM | B12
78 | 1.5 nM | B13
79 | 1.7 nM | B14

Molecular target: T4, human FcγRIIa type H extracellular …
Assay: SPR (Biacore)

Row | Kd | Binder
80 | 1600 nM | B1
81 | 1300 nM | B2
82 | 4600 nM | B3
83 | 3000 nM | B4
84 | 2600 nM | B5
85 | 2800 nM | B6
86 | 5000 nM | B7
87 | 4300 nM | B8
88 | 860 nM | B9
89 | 5800 nM | B10
90 | 5600 nM | B11
91 | 1300 nM | B12
92 | 1000 nM | B13
93 | 930 nM | B14

Molecular target: T6, human FcγRIa extracellular domain with C-terminal His tag (human, UniProt P12314 16-292)
T6 construct: extracellular domain
T6 sequence (P12314 16-292): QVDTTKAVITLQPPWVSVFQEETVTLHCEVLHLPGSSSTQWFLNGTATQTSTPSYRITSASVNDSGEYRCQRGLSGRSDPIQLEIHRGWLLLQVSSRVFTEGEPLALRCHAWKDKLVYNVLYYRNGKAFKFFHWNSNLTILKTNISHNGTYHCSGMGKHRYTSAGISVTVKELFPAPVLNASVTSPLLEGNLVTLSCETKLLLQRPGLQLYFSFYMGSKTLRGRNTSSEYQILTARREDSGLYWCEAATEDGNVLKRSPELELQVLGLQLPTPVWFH
Assay: SPR (Biacore)

Row | Kd | Binder
94 | 2.2 nM | B1
95 | 8.9 nM | B2
96 | 96 nM | B3
97 | 55 nM | B4
98 | 7.7 nM | B5
99 | 32 nM | B6
100 | 25 nM | B7
101 | 6 nM | B8
102 | 1.2 nM | B9
103 | 43 nM | B10
104 | 64 nM | B11
105 | 2.1 nM | B12
106 | 1.2 nM | B13
107 | 1.3 nM | B14
